Measured values published in the nanobody polyreactivity screen of Harvey et al. (2022).

Assay: yeast display, Sf9 membrane polyspecificity reagent, FACS + sequencing; frameworks hold sequencing errors
Outline: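 Galactose induction of a Saccharomyces cerevisiae BJ5465 synthetic nanobody display library ran 36–48 hours. The cells were then stained for 1 hour at 4 °C with 10% biotinylated, detergent-solubilized Sf9 membrane reagent, pulled down on streptavidin microbeads and FACS-sorted into low and high (top ~1%) gates on expression and reagent-binding fluorescence. Labels for polyreactivity follow the gate of origin.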

| Sequence | polyreactivity (PSR sort gate) |
| --- | --- |
| QVQLVESGGGLVQAGGSLRLSCAASGSTFSGYAMGGYRQAPGKERELVAAISSSGGSTSYADSVKGRFTISRDNAKNTVYLQMNSLKPEDTAVYYCAARAKGYAHIRAYDYWGQGTQVTVSS | low polyreactivity |
| QVQLVESGGGLVQAGGSLRLSCAASGFTFQPNAMGWYRQAPGKERELVAAITWSTGRTYYADSVKGRFTISRDNAKNTVYLQMNSLKPEDTAVYYCNKRKNLLHSFEYDYWGQGTQVTVSS | low polyreactivity |
| QVQLVESGRGLVQAGGSHRLSCAASGSTITYYTMGWYREAPGKERELVAAISGSGGRTYYADSVKGRFTISRDNAKNTVYLQMNSLKPEDTAVYYCAAVYQLSRYDYWGQGTQVTVSS | high polyreactivity |
| QVQLQESGGGLVQAGGSLRLSCAASGAIFDGFNMGWYRQAPGKEGEFVAAISYGASTDYADSVKGRFTVSRDNAKNSVYLQMNSLKPEDTAVYYCAVYDELYHVLVYWGRGTQVTVSS | low polyreactivity |
| QVQLVESGGGLVQAGGSLRLSCAASRSTSPAYAMGWYRQAPGKERELVAVITGSGASTYYADSVKGRFTISRDNAKNTVYLQMNSLKPEDTAVYYCAADVGFGVVFYDYWGQGTQVTVSS | low polyreactivity |
| QVQLVESGGGLVQAGGSLRLSCAASGFIFQRYAMGWYRQAPGKERELVAAITRTGGRTYYSDSVKGRFTISRDNAKNTVYLQMNSLKPEDTAVYYCAADRTMSYEYWGQGTKVTVSS | high polyreactivity |
| QVQLVQSGGGLVQAGGSLRLSCAASGITFWGNAMGSYRQAPGKEREFIARINWSGGRTYYAESVKGRFTISRDNEKNNVYLQMNSLKPEDTAVYYCAATSLIYGYRTYDYWGQGTQVTVSS | high polyreactivity |
| QVQLVESGGGLVQAGGSLRLSCAASGFIFSSYAMGWYRQAPGKERELVAAITVRAGRTYYADSVKGRFTISRDNATNTVYFQMNSVKAEDTAVDYCAAAYRHPYGKYVYWGQGTQVTVSS | high polyreactivity |
| QDQLVESGGGLVQAGGSLRLSCAASGSTFVPNAMGWYRQAPGKERELVAVISDSGVTTYYADSVKGRFTISRDNAKNTVYLQMNSLKPEDTAVYYCAARQDTWDAYLSTGEFDYWGQGTQVTVSS | high polyreactivity |
| QVQLGDSGGGLVQAGGSLRLICAASGLTIPDNTMGWYRQAPGKERELVSAIDWSGGGTDYADSVKGRFTISRDNAKNTVYLQMNSLYPVDTAVYYCATSWYIYPYDDWGQGTQVTVSS | low polyreactivity |
| QVQLVESGGGLVQAGGSLRLSCAASGFTFRWYAMGWYRQAPGKERELVAAISVSGGSTSYADSVKGRFTISRDNAKNTVYLQMNSLKPEDTAVYYCAAVRWAGYVSDYGYWGQGTQVTVSS | high polyreactivity |
| QVQLVESGGGLVQAGGSLRLSCAASGFTFPVNTMGWYRQAPGKERELVAAISTSGAGTYYADSVKGRFTISRDNAKNTVYLQMNSLKPEDTAVYYCNADSQPGPYPGIRYDYWGQGTQVTVSS | high polyreactivity |
| QVQLVESGGGLVQAGGSLRLSCAASGSIFGANTMGWYRQAPGKERELVAGITSGARTYYADSVKGRFTISRDNAKNTVYLQMNSLKPEDTAVYYCAAKYAWRRYGYWGQGTQVTVSS | high polyreactivity |
| QVQLVESGGGLVQAGGSLRLSCAASGRIFAGYAMGWSRQAPGKERELVASIRSSGSTYYADSVKGRFTISRDNAKNTVYLQMNSLKPEDTAVYYCATTGRRWYYPYHYWGQGTQVTVSS | high polyreactivity |
| QVQLVESVGGLVQAGGSLRLSCAASGRTFFYNAMGWYRQAPGKERELVAAIDWSGDSTYYADSVKGRFTISRDNAKNTVYLQMNSLKPEDTAVYYCAARRKNRRDYDYYYWGQGTQVTVSS | high polyreactivity |
| QVQLVESGGGLVQAVGSLRLSCAASGFIFVRYAMGWYRQAPAKERELVAAISYSGGSTYYADSVKGRFTISRDNAKNTVYLQMNSLKPEDTAVYYCAAEYYSGGYRYYAEYGYWGQGTQVTVSS | high polyreactivity |
| QVQLQESGGGLVQAGGSLRLSCAASGYISLAQTIGWYRQAQGKEREFVASIALGSSTYYTDSVKGSFTISRDNAKTTVYLQMNSLKPEDTAVYYCAARVGASYAHDYWGQGTQVTLSS | low polyreactivity |
| QVQLVESGGGLVQAGGSLRLSCAASGRTFRAYAMGWYRQAPGKERELVAAISSRGGSTYYADSVKGRFTISRDNAKNTVYLQMNSLKPEDTAVYYCNVDRYVRGLITFDYWGQGTQVTVSS | high polyreactivity |
| QVQLVESGGGLVQAGGSLRLSCAASGITFDWNAMGWYRQAPGKERELVAAISSGASTYYADSVKGRFTISRDNAKNTVYLQMNSLKPEDTAVYYCAKRHAINIHAVGPYYTSMDYWGQGTQVTVSS | low polyreactivity |
| QVQLVESGGGLVQAGGSLRLSCAASGSISKINAMGWYRQAPGKESELGAAINTGDSTYYADSVKGRFTISRDNAKNTVYLQMNSLKPEDTAVYYCAAEGSPTGYDDWGQGTQGTVSS | low polyreactivity |
| QVQLVESGGGLVQAGGSLRLSCAASGRIFTHNAMGWYRQAPGKEREVVAAISYSGVSTYYADSVKGRFTISRDNAKNTVYLQRNSLNTDDTAVYFCARRYWYPDAFYRYDYWGQGTPVTVSS | low polyreactivity |
| KVQLVESGGGLVQAGGSLRLSCAASGLTFSYYAMGWYRQAPGKERELVAAITRSGTRTYYADSVKGRFTISRDNAKNTVYLQMNSLKPEDTAVYYCARYLRGDFQQGEHWGQGTQVTVSS | high polyreactivity |

| Sequence | polyreactivity (PSR sort gate) |
| --- | --- |
| QDQIVESGGGLVQAGGSLRLSCASSGFTFYVYAMGWYRQAPCKERELVAAISWSGGRTYYAESVKGRFTISRDNAKNTVYLQMNSLKPEDTAVYYCAAYRYYPSYDYWGQGTQVTVSS | high polyreactivity |
| QVQLVESGGGLVQAGGSLRLSCAASGSTFWGYALGWYRQAPGKERELVASIRRGASTTYADSVKGRFTISRDNAKNTVYLQMNSLKPEDSAVYYCAKPGYFRSHDYWGQGTQVTVSS | low polyreactivity |
| QVQLVESGGGLVQAGGSLRLSCAASGSTFHRNAMGWYRQAPGKERELVAAISWRGGSTYYADSVKGRFTISRDNAKNNVYLLMNSLKPEDTAVYYCNAVERYWDYGYWGQGTQVTVSS | low polyreactivity |
| QVQLVESGGGLVQAGGSLRLSCAASGRIFYGNVMGWYRQAPGKERELVAVITSGGNTNYADSVKGRFTISRDNAKNTVYLQMNSLKPEDTAVYYCATAVVAGVWGYDYWGQGTQVTVSS | low polyreactivity |
| QVQLVESGGGLVQAGGSLRLTCAASGRIFSSYAMGWYRQAPGKERELVAAITGRDGSTYYADSVKGRFTISRDNAKNTVYLQMNSLKPEETAVYYCAASRFYFPLTFGGYPKLASYDYWGQGTQVTVSS | low polyreactivity |
| QVQLVESGGGLVQAGGSLRLSCAASGSIFGANVMGWYRQAPGKERELVAAISFSGGSTFYADSVKGRFTISRDNAKNTVYLQMNSLKPEDTAVYYCAASYGGKGVKYYYWGQGTQVTVSS | high polyreactivity |
| QVQLVESGGGLVQAGGSLRLSCAASGIIFIVNAMGWYRQAPGKERELVATISSSGDITRYADSVKGRFTISRDNAKYTVYLQMNSLKPEDTAVYYCAARLWTGYWGTAHPRYDYWGQGTQVTVSS | high polyreactivity |
| QVQLVESGGGLVQAGGSLRLSCAASGRIFFRNAMGWYRQAPGKERELVAVINTGGSTNYADSVKGRFTISRDNAKNTVYLQMNSLKPEDTAVYYCAVDRASRRTYNQYGYWGQGTQVTVSS | high polyreactivity |
| QVQLVESGGGLVQAGGSLRLSCAASGSTFKIYAMGWYRQAPGKERELVAVITSGGRTNYADSGKGRFTISRDNAKNTVYLQMNSLKPEDTAVYYCARGRSIHSSNRLEYWGQGTQVTVSS | high polyreactivity |
| QVQLVESGGGLVQAGCSLRLSCAASGRTFSSYAMGWYRQSPGKERELVAAINRGGGSTYYADSVKGRFTISRDNAKNTVYLQMNSLKPEDTAVYYCNARSKRTYEYDYWGQGTQVTVSS | high polyreactivity |
| QVQHVESGVGLVQAGGSLRLSCAASGFIFTINAMGWYRQAPGKERELVAAISWSGGRTYYADSVKGRFTISRDNAKNTVYLQMNSLNPEDTAVYYCNAYPATQYDYESWGQGTQGTVSS | high polyreactivity |
| QVQLVESGGGLVQAGGSLRLSCAASGFTFIYYAMGRYRQAPRKERELVAAISSGGSTYYADSVKGRFTISRDNAKNTVYLQMNSLKPEDTAVYYCAAGYWWPVQYYSRYNYWGQGTQVTVSS | high polyreactivity |
| QVQLVESGGGLVQAGGSLRLSCAASGRIFSAYAMGWFRQAPGKERELLAAISKRGGRTYYADSVKGRFTISRDNATNTVYLQTNSLKPEDTSVYYCNKRYLDGHDLDYCGQGTQVTVSS | high polyreactivity |
| QVQLVESGGVLVQAGGSIRLSCAASGRIIYKNAMGWYRQAPGKERELVAAITSSGGSTYYADSVKGRFTISRDNAKITVYFQMNSLKPEDTAVYYCAAYAYGRFGKLNYWGQGTQVTVSS | low polyreactivity |
| QVQLVESGGGLVPAGGSLRLSCAASGLTIYHYAMGWYRQAPGKERELVAAISYSGGSTYYADSVKGRFTISRDNAKNTVYLQMNSLKPEDTAVYYCAAYARHYGTSSLRYDYWGQGTQVTVSS | high polyreactivity |
| QVQLVESGGGLVQAGGSLRLSCAASGSIFYRNAMGWYRQAPGKERELVAVITRRGGRTYYADSVKGRFTISRDNAKNTVDLQMNSLKPEDTAVYYCNADTANYADGLDYWGQGTQVTVSS | low polyreactivity |
| QVQLVESGGGLVQAGGSLRLSCAASGSTFSPYAMVWYRQEPGKERELVAAITWSGGSTYYADSVKGRFTISRDNAKNSVYLQMNSLKPEDTAVYYCNAVPYLSIEYDYWGQGTQVTVSS | high polyreactivity |
| QVQLVESGGGLVQAGGSLRLSCAASGLTFERYAMGWYRQAPGKERELVAAISIRGGSTYYADSVKGRFTISRDNAKNTVYLQMNSLKPEDTAVYYCSADGRGREYDYWGQGTQVTVSS | low polyreactivity |
| QVQLVESGGGLVQAGGSLRLSCAASGRIFSRYTMGWYRQAPGKERELVAAISRRGGSTNYADSVKGRFTISRDNAKNTVYLQMNSLKPEDTAVYYCAAHGPFVRSQSLRSGRFDYWGQGTQVTVSS | high polyreactivity |
| QVQLVESGGGLDHAGGSLRLSCAASGFIFTPNAMGMYRQAPAKEREWVAAITSGGVTYYADSVKGRFTISRDNAKNTVYIQMNSLKPEGTAVYYCKKNHTGTVRDSIYGYWGQGNQVTVSS | high polyreactivity |
| QDQLVESVGGLVQAGGSLRLSCAASGRTIDPNAMGWYRQAPGKERELVAAITRTGVRTYYADSVKGRFTISRDNAKNTVYLQMNSLKPEDTAVYYCAASYSGRQDRYPHYDYWGQGTQVTVSS | low polyreactivity |
